According to the Human Domainome abundance scans (Beltran et al. 2025):

B1: Peripheral plasma membrane protein CASK, residues 488 to 569; numbered along this chain, O14936 (parent)
chain: VRLVQFQKNTDEPMGITLKMNELNHCIVARIMHGGMIHRQGTLHVGDEIREINGISVANQTVEQLQKMLREMRGSITFKIVP

Variants of: B1
Experiment: abundance fitness (aPCA) (normalised: wild type 0, dead -1); higher = more abundant; growth selection in yeast, the domain comes from the species named
Details: Homo sapiens

Abundance fitness, by site and new letter:
T17: V 0.003; R -0.031; P -1.07; C -0.045; G -0.023
G15: Q -0.362; E -0.201; D -0.276; S -0.493; C -0.556; H -0.549; Y -0.776; W -0.374; V -0.682; A -0.395; R -0.467; P -0.266; K -0.538; N -0.398; F -0.427; L -0.62
L18: S -0.699; W -0.492; R -0.986; M -0.128; I -0.055; T -0.646; A -0.761; D -1.13; N -0.918; V -0.088; Q -0.797; F 0.04; Y -0.277; C -0.262; K -0.796; P -1.2; H -0.877; E -0.909
V4: Y -0.19; I -0.091; F -0.094; A -0.199; Q -0.565; G -0.677; H -0.235; L -0.024; S -0.392; D -0.842; T -0.239; W -0.307; K -0.259; R -0.265; M -0.138; C -0.165
N9: Q -0.008; E 0.055; S -0.009; V 0.005; D 0.024; A -0.003; F -0.035; R -0.031; L 0.019; W -0.081; Y -0.088; M -0.012; C -0.092; G -0.027; H -0.027; T 0.024; I -0.015
I16: S -1.08; N -0.654; D -0.933; Y -0.593; K -1.14; V -0.081; G -0.98; T -0.659; A -0.115; F 0.109; L 0.088; P -0.765; W -0.044; Q -0.849; E -0.932; C -0.143
E12: M -0.016; N -0.277; F -0.231; Y -0.237; S -0.089; H -0.154; Q -0.063; R -0.143; P -0.757; I -0.09; G -0.059; D -0.101; V -0.139; A -0.08; L -0.131
F6: M 0.052; A -0.065; C -0.01; N -0.708; D -0.712; T -0.129; Q -0.589; K -0.674; G -0.405; S -0.321; W -0.251; V 0.061; Y -0.095; R -0.673; E -0.629; I -0.028; P -0.924; L 0.053; H -0.181
L3: N -0.13; W -0.113; P -0.322; E 0.094; T 0.033; K -0.026; V 0.002; Q 0.018; Y -0.015; F 0.007; I 0.085; S -0.026; D -0.141; C -0.198; A -0.14; G -0.307
Q5: W -0.106; R 0.074; E 0.149; S 0.075; F -0.041; K 0.128; T 0.117; I -0.068; M 0.065; Y -0.024; V 0.029; D -0.038; L -0.092; G 0; A 0.07; H -0.049
M20: P -0.325; L -0.016; N -0.16; F 0.026; D -0.489; E -0.302; I -0.036; K 0.034; A -0.128; G -0.453; C -0.19; H -0.038; Q -0.059
